The record followed here is the nanobody polyreactivity screen of Harvey et al. (2022).

The nature of this series: yeast display, Sf9 membrane polyspecificity reagent, FACS + sequencing; frameworks hold sequencing errors. Summed up:
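Galactose induction of a Saccharomyces cerevisiae BJ5465 synthetic nanobody display library ran 36–48 hours. The cells were then stained for 1 hour at 4 °C with 10% biotinylated, detergent-solubilized Sf9 membrane reagent, pulled down on streptavidin microbeads and FACS-sorted into low and high (top ~1%) gates on expression and reagent-binding fluorescence. Labels for polyreactivity follow the gate of origin.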
For “QVQLVESGGGLVQAGGSLRLSCAASGRIFTTYAKGWYRQAPGKERDLVAAISQNGGSTYYADSVKGRFTISRDNAKNTVYLPMNSLKPEDTAVYYCKAGAAGYYDYDYWGQGTQVTVSS”, the “polyreactivity (PSR sort gate)” value was “low polyreactivity”. The result for “QVQLVESGGGLVQAGGSLRLSCAASGRIFTTYAMGWYRQAPGKERELVAAISQNGGSTYYADSVKGRFTISRDNAKNTVYLQMNSLKPEETAVYYCNAGPAGYYDYDYWGQGTQVTVSS” reads “low polyreactivity”; that for “QVQLVESGGGLVQAGGSLRLSCAASGRIFTTYAMGWYRQAPGKERELVAAISRSGGSTYYADSVKGRFTISRDNAKNTVYLQMNSLKPEDTAVYYCAARRRQEHVGRSSYARYDYWGQGTQVTVSS”, “high polyreactivity”; that for “QVQLVESGGGLVQAGGSLRLSCAASGRIFTTYAMGWYRQAPGKERELVAAISRSGGSTYYADSVKGRFTISRDNAKNTVYLQMNSLKPEDTAVYYCAAVPTSNSFRSSFYYWGQGTQVTVSS”, “high polyreactivity”. The result for “QVQLVESGGGLVQAGGSLRLSCAASGRIFTTYAMGWYRQAPGKERELVAAITSGGGTYYADSVKGRFTISRDNAKNTVYLQMNSLKPEDTAVYYCNADYSADYYWYYYWGQGTQVTVSS” reads “low polyreactivity”. The result for “QVQLVESGGGLVQAGGSLRLSCAASGRIFTTYAMGWYRQAPGKERELVASISWRVGSTYYADSVKGRFTISRDNAKITVYLQMNSLKPEETAVYYCAAVGGNYHASGLRYYWGQGNQVTVSS” reads “low polyreactivity”; that for “QVQLVESGGGLVQAGGSLRLSCAASGRIFTVYAMGWYRQAPGKERELVAAISGRGGRTYYADSVKGRFTISRDNAKNTVYLQMNSLTPEDTAVYYCADYSYVRSSYEVEYDYWGQGTQVTVSS”, “low polyreactivity”; that for “QVQLVESGGGLVQAGGSLRLSCAASGRIFTWYAMGWYRQAPGKERELVAAISSAGRTYYADSVKGRFTISRDNAKNTVYLQMNSLKPEDTAVYYCAKVSKYRHFYTFDYWGQGTQVTVSS”, “high polyreactivity”. Consider “QVQLVESGGGLVQAGGSLRLSCAASGRIFTYYAMGWYRQAPGKERELVAAISSGGSTYYADSVKGRFTISRDNAKNTVYLQMNSLKPEDTAVYYCAAEPWYYPYLSPTYGYWGHGTQVTVSS”, for which the “polyreactivity (PSR sort gate)” value is listed as “low polyreactivity”.

On to “QVQLVESGGGLVQAGGSLRLSCAASGRIFTYYAMGWYRQAPGKERELVATITRRGGRTYYADSVKGRFTISRDNAKNTVYLQMNSLKPEDTAVYYCAVVPETRYYYWGQGTLVTVSS”, for which the “polyreactivity (PSR sort gate)” value is reported as “high polyreactivity”. To “QVQLVESGGGLVQAGGSLRLSCAASGRIFTYYTMGWYRQAPGKERELVAAISWSGGRTYYADSVKGRFTISRDNAKNTVYLQMNSLKPEDTAVFYCARLQDSRESPWRGYYWGQGTQVTVSS” belongs “high polyreactivity”; to “QVQLVESGGGLVQAGGSLRLSCAASGRIFTYYTMGWYRQAPGKERELVAAISYSGRTYYADSVKGRFTISRDNAKNTVYLQMNSLKPEDTAVYYCNAARPRGYGFDYWGQGTQVTVSS”, “high polyreactivity”; to “QVQLVESGGGLVQAGGSLRLSCAASGRIFTYYTMGWYRQAPGKERELVASITGGGGRTYYADSVKGRFTISRDNAKNTVYLQMNSLKPEDTAVYYCNARYPYPYWYTSYDYWGQGTQVTVSS”, “high polyreactivity”. The result for “QVQLVESGGGLVQAGGSLRLSCAASGRIFVDYAMGWYRQAPGKERELVAAITRSGDRTYYADSVKGRFTISRDNAKNTVYLQMNSLKPEDTAVYYCATVYPGYVWGQGTQVTVSS” reads “low polyreactivity”. To “QVQLVESGGGLVQAGGSLRLSCAASGRIFVGNAMVCYKQAPGKERELVAGITSRGGSTYYADSVKGRFTISRDNAKNTVYLQMNSLKQEDTAVYYCASYYRYPSWKFDYWGQGTQVTVSS” belongs “high polyreactivity”.

With “QVQLVESGGGLVQAGGSLRLSCAASGRIFVGYALGWYRQAPGKERELVAAINRSGSSTYYADSVKGRFTISRDNAKNTDYLQMNSLKPEDTAVYYCNARSGNRYGPRYDYWGQGTQVTVSS”, the “polyreactivity (PSR sort gate)” value is recorded as “high polyreactivity”.

As for “QVQLVESGGGLVQAGGSLRLSCAASGRIFVGYAMGWYRQAPGKERELVAAINRSGSSTYYADSVKGRFTISRDNAKNTVYLQTNSLKPEDTAVYYCAVRPLYDRRYTAVRRYDYWGQGTQVTVSS”, the “polyreactivity (PSR sort gate)” value was “high polyreactivity”. To “QVQLVESGGGLVQAGGSLRLSCAASGRIFVGYAMGWYRQATGKERELVAAISARGGSTYYADSVKGRCTISRDNAKNTVYIQMNSLKPEDTAVYYCAADEASSRGYYDYDYWGQGTQVTVSS” belongs “low polyreactivity”; to “QVQLVESGGGLVQAGGSLRLSCAASGRIFVGYVMGWYRQAPGKERELVAAISSGGRTYYADSVKGRFTISRDNAKNTVYLQMNSLKPEDTAVYYCAAKRGGYNKEYDYWGQGTQVTVSS”, “high polyreactivity”.

For “QVQLVESGGGLVQAGGSLRLSCAASGRIFVHNAMGWYRQAPGKERELVAAIRSSGGRTYYADSVKGRFTISRDNAKKTVYLQMNSLKPEDTAVYYCAARFDTTRVGYWGQGTQVTVSS”, the “polyreactivity (PSR sort gate)” value is given as “high polyreactivity”. The result for “QVQLVESGGGLVQAGGSLRLSCAASGRIFVHNAMGWYSQARGKERELVAAINSGGSTNYADSVKGRFTISRDNANKTVYLQMNSLKPEDTAVYYCAAYWYPYPDAFEYYNYGYWGQGTQVTVSS” reads “high polyreactivity”; that for “QVQLVESGGGLVQAGGSLRLSCAASGRIFVHNVMGWYRQAPGKERELVAAITVSGGGTYYADSVKGRFTISRDNAKNTVYLQMNSLKQEDTAVYYCNAVPHPYDWGQGTQVTVSS”, “low polyreactivity”; that for “QVQLVESGGGLVQAGGSLRLSCAASGRIFVHYAMGWYRQAPGKERDLVAAISMSGGNTYYADSVKGRFTISRDNEKNTVYLQMNSLKPEDTAVYYCARAPYYVASGHRRVLRPTYEYWGQGTQLTVSS”, “low polyreactivity”. The result for “QVQLVESGGGLVQAGGSLRLSCAASGRIFVHYASGWYRQAPGKERELVAAISWNGGRTFYADSVKGRFTISRDNAKNTVYLQMNSLKPEDTAVYYCAARSRYSLDYWGQGTQVTVSS” reads “high polyreactivity”; that for “QVQLVESGGGLVQAGGSLRLSCAASGRIFVHYVMGWYRQAPGKERELVAAISRSGGRTYYADSVKGRFTISRDNAKNTVYLQMNSLKAEDTAVYYCATDASTYKYDYWGQGSQVTVSS”, “high polyreactivity”; that for “QVQLVESGGGLVQAGGSLRLSCAASGRIFVHYVMGWYRQAPGKERELVAAITVSGGGTYYADSVKGRFTISRDNAKNTVYLQMNSLKPEDTAVYYCNAVPHPYDWGQGTQVTVSS”, “low polyreactivity”. To “QVQLVESGGGLVQAGGSLRLSCAASGRIFVINTMGWYRQAPGKERELVAAISRGGSTNYADSVKGRFTISRDNAKNTVYLQMNSLKPEDTAVYDCAATGYILFAGCGYDYWGEGTQVTVSS” belongs “low polyreactivity”. On to “QVQLVESGGGLVQAGGSLRLSCAASGRIFVIYAMGWYRQAPGKERELVAAISYSGGSTYYADSVKGRFTISRDNAKNTVYLQMNSLKPEDTAVYYCAARVRGDYGHKYYQYDYWGQGTQVTVSS”, for which the “polyreactivity (PSR sort gate)” value is on record as “low polyreactivity”. The result for “QVQLVESGGGLVQAGGSLRLSCAASGRIFVKYAMGWYRQAPGKERELVAAISKSGGSTYYADSVKGRFTISRDNAKNTVYLQMNSLKPEDTAVYYCATRSREQYSVSYRLDYWGQGTQVTVSS” reads “low polyreactivity”; that for “QVQLVESGGGLVQAGGSLRLSCAASGRIFVKYGMGWYRQAPGKERELVAAISWTGGSTYYADSVKGRFTISRDNAKNTVYLQMNSLKPEDTAVYYCAAESWFKYDYWGQGTQVTVSS”, “low polyreactivity”; that for “QVQLVESGGGLVQAGGSLRLSCAASGRIFVLYAMGWYRQAPGKERELVAAINWSGGSTFYADSVKGRFTISRDNAKNTVYLQMNSLKPEDTAVYYCAARRGYNDGYWGQGTQVTVSS”, “high polyreactivity”.

For the sequence “QVQLVESGGGLVQAGGSLRLSCAASGRIFVNNAMGWYRQAPGKEREFDATITSSGGRTYYADSVKGRFTISRDNAKYTVYLQMNSLKPEDTAVYYCAARPQNNGRNPVYRYNYWGQGTQVTVSS”, the “polyreactivity (PSR sort gate)” value is recorded as “high polyreactivity”. The result for “QVQLVESGGGLVQAGGSLRLSCAASGRIFVPYAMGWYRQAPGKERELVAAISRNTGSTYYADSVKGRFTISRDNAKNTVYLQMNSLKPEDTAVYYCAAGSRVRYDGGYKINGYWGQGTQVTVSS” reads “high polyreactivity”. For the sequence “QVQLVESGGGLVQAGGSLRLSCAASGRIFVPYAMGWYRQAPGKERELVAAISRSSPTYYADSVKGRFTISRDNAKNSVYLQMNSLKQEDTAGYYCAAAYYATTPKADYHFRGYEYWGQGTQVTVSS”, the “polyreactivity (PSR sort gate)” value is listed as “high polyreactivity”. The result for “QVQLVESGGGLVQAGGSLRLSCAASGRIFVRNALGWYRQAPGKERELVAGINSGGGTTYADSVKGRFTISRDNAKNTVYLQMNSLKPEDTAVYYCAAGYWTRYWSWVDYWGQGTQVTVSS” reads “high polyreactivity”; that for “QVQLVESGGGLVQAGGSLRLSCAASGRIFVRNAMGWYRQAPGKERELVATITSIGGRTYYADSVKGRFTISRDNAKNTVYLQMNSLKPEDTAVYYCAAYNTQSYPAYLRYDYWGQGTQVTVSS”, “low polyreactivity”; that for “QVQLVESGGGLVQAGGSLRLSCAASGRIFVRNVMGWYRQAPGQERELVARITSGGSTNYADSVKGRFTISRDNAKNTVYLQINSLKPEDTAVYYCAAQGRHYHRTSTGYDYWGQGTQVTVSS”, “high polyreactivity”. The result for “QVQLVESGGGLVQAGGSLRLSCAASGRIFVRYAMGWYRQAPGKERELVAAISYRGGSTYYADSVKGRFTISRDNAKNTVYLQMNSLKPEDTAVYYCAARNSYGNWRYYYWGQGTQVTVSS” reads “high polyreactivity”. To “QVQLVESGGGLVQAGGSLRLSCAASGRIFVRYAMGWYRQAPGKERELVASIRSGGSTNYADSVKGRFTISRDNAKNTVYLQMNSLKPEDTAVYYCAAVLRPVRFYSGYYYWGQGTQVTVSS” belongs “high polyreactivity”; to “QVQLVESGGGLVQAGGSLRLSCAASGRIFVRYDRGWYRQAPGKERELVAAISSSDGSTYYADSVKGRFTISRDNAKNTVYLQMNSLKPEDTAVYYCNADVSLDDYDYWGQGTQVTVSS”, “low polyreactivity”; to “QVQLVESGGGLVQAGGSLRLSCAASGRIFVRYTMGWYRQAPGKERELVARITSGGSTNYADSVKGRFTISRDNAKNTVYLQMNSLKPEDTAVYYCAKSYGPRFGYWGQGTQVTVSS”, “low polyreactivity”.
